Reference: patent US20180111972A1 (Stanford University, published 2018)
Like-named read-outs stand apart in the source and are kept apart here.

B4: PDGFRβ-His (residues 1-314 of PDGFR-β with C-terminal hexahistidine tag) (receptor)
chain: LVVTPPGPELVLNVSSTFVLTCSGSAPVVWERMSQEPPQEMAKAQDGTFSSVLTLTNLTGLDTGEYFCTHNDSRGLETDERKRLYIFVPDPTVGFLPNDAEELFIFLTEITEITIPCRVTDPQLVVTLHEKKGDVALPVPYDHQRGFSGIFEDRSYICKTTIGDREVDSDAYYVYRLQVSSINVSVNAVQTVVRQGENITLMCIVIGNEVVNFEWTYPRKESGRLVEPVTDFLLDMPYHIRSILHIPSAELEDSGTYTCNVTESVNDHQDEKAINITVVESGHHHHHH
notes: range 1-314; Monovalent form, expressed in FreeStyle 293-F cells; also called PDGRβ-His; PDGFR-His

Assays:
[1] = target: T1, VEGFR2-His (residues 1-764 of VEGFR2, Ig-like domains 1-7, with hexahistidine tag) (human, UniProt P35968 20-764); experiment: KinExA Kinetics Injection
T1 construct: range 1-764; Monomeric form, expressed in FreeStyle 293-F cells; also called VEGFR-His
T1 sequence (P35968 other isoform, or with tags, fused parts or gaps limits assumed, form in doubt): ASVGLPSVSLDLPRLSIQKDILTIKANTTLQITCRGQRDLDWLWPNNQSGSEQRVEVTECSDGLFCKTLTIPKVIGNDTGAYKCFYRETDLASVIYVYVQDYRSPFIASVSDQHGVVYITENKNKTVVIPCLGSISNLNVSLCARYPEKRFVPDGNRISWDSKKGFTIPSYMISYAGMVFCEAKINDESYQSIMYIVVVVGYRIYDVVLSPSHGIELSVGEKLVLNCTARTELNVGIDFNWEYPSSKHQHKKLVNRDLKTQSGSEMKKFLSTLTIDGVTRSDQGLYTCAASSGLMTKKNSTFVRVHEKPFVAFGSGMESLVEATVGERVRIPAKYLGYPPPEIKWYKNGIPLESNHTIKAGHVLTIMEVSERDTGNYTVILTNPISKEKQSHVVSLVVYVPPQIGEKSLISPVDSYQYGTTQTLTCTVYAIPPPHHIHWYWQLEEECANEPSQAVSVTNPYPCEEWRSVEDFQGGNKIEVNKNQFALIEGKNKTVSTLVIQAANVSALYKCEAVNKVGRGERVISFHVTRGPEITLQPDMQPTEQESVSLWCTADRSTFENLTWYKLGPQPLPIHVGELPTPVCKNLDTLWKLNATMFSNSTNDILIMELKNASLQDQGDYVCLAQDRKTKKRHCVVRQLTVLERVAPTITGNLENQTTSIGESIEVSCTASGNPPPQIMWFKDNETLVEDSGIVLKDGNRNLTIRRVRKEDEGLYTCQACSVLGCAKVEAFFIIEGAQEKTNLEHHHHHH
Procedure: (§1) Additionally, the kinetic parameter kₒₙ can be determined by using a “kinetics injection” experiment. A constant concentration of PDGF/VEGF ligand is injected with an equal volume of differing concentrations of PDGRβ-His or VEGFR2-His. The two solutions are allowed to mix briefly (several seconds) in the time required for the instrument to deliver the mixture to the detection bead column. The pre-equilibrium concentrations of free ligand is fit to the standard bimolecular rate equation to obtain kₒₙ.
(§2) Kinetic Exclusion Assay (KinExA). All experiments were performed on a KinExA 3200 instrument with siliconized flow cell (Sapidyne Instruments Inc). […] 30 μg of receptor was incubated in 1 ml of 50 mM sodium bicarbonate, 0.5 M sodium citrate buffer, pH 8.3, for 2 hr at room temperature with rocking. Beads were allowed to settle by gravity and liquid removed. Beads were blocked by incubating in 1 ml of 10 mg/ml BSA in 1 M Tris buffer, pH 8.0, for 1 hr at room temperature with rocking, and stored in blocking buffer at 4° C. for up to one week until use. Running buffer contained PBS with 10 mM imidazole and 0.02% sodium azide. Samples were prepared in running buffer with 1 mg/ml BSA. Binding reactions were prepared with a fixed concentration of PDGF/VEGF ligands and dilution series of PDGFR or VEGFR. Captured PDGF/VEGF ligands were detected using a Dylight 649-conjugated anti-FLAG antibody (Rockland) at 1:1000 dilution in sample buffer. Kinetic experiments were performed with the “Kinetics Injection” method defined in the KinExA software. Data were analyzed with KinExA Pro Software. The Kd was determined from a global fit of two concentration curves using the “n-curve analysis” tool and the titrant concentrations as reference. […] The kₒₙ was calculated as a fit of the pre-equilibrium free ligand concentrations to the bimolecular binding equation using the “Kinetics Injection” tool.

[2] = target: B4; experiment: KinExA Kinetics Injection
Procedure: as §1, §2

[3] = target: T2, mouse VEGFR on SVR murine angiosarcoma endothelial cells (mouse); experiment: flow cytometry on SVR cells, soluble ligand titrated 3 h at 4 C, anti-FLAG-PE
T2 construct: whole, on cells
T2 sequence (P35918 20-1345): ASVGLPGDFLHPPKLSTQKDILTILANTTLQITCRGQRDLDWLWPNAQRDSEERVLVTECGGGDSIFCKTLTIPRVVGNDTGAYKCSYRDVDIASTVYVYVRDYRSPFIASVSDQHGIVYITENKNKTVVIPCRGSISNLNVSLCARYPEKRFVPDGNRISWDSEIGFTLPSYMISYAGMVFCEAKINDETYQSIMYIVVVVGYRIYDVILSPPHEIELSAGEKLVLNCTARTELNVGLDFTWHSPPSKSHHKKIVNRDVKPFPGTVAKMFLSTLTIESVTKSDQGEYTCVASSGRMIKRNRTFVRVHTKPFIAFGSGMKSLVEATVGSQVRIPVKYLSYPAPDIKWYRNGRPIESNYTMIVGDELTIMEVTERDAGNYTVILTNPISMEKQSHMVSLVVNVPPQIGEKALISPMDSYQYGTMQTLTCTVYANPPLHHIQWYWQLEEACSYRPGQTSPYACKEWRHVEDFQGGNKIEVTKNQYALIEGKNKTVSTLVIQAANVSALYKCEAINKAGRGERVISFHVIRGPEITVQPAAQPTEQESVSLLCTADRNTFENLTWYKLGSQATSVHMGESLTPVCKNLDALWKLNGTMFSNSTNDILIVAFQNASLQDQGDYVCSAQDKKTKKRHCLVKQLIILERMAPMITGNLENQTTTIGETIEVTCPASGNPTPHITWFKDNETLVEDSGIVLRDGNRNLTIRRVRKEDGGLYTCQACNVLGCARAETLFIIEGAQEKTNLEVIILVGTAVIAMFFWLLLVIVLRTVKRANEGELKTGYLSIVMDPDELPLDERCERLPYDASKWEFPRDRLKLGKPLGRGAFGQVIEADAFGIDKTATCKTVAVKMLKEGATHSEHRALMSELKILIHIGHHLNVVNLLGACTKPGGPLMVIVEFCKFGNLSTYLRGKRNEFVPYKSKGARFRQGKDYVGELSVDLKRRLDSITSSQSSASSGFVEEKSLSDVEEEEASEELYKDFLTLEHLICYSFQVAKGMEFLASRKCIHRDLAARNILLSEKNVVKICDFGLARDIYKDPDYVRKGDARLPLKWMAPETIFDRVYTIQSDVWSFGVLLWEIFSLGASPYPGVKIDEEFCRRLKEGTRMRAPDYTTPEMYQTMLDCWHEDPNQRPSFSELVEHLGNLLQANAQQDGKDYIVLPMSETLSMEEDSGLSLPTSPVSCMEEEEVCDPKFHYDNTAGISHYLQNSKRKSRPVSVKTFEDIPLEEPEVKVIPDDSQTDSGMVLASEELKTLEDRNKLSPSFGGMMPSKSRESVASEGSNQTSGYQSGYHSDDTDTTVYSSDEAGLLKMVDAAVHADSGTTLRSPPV
Procedure: (§3) To test binding to VEGFR, human umbilical vein endothelial cells (HUVECs) and murine angiosarcoma endothelial cells (SVR) were used.
(§4) Cell-binding assay. Varying concentrations of scPDGF, scVEGF, and PDGF/VEGF ligands were incubated with 25,000 PDGFR- or VEGFR-expressing cells in binding buffer (20 mM Tris pH 7.5 with 1 mM MgCl₂, 1 mM MnCl₂, 2 mM CaCl₂, 100 mM NaCl, and 1 mg/ml BSA) for 5 hr (BJ-5ta, NIH/3T3) or 3 hr (HUVEC, SVR) at 4° C. Cells were washed and pelleted, then incubated with 1:100 R-PE-conjugated anti-FLAG antibody (Prozyme) for 15 min on ice. Cells were washed, pelleted, and resuspended in binding buffer immediately before analysis by flow cytometry using BD Accuri C6. Flow cytometry data were analyzed using BD Accuri C6 software, and statistical analysis was performed using GraphPad Prism 6.

[4] = target: T1, VEGFR2-His (residues 1-764 of VEGFR2, …); experiment: KinExA, equilibrium titration in solution, n-curve analysis
Procedure: (§5) For KinExA measurements, a constant amount of PDGF/VEGF ligand is titrated with differing concentrations of PDGRβ-His or VEGFR2-His. The solutions are incubated for an appropriate amount of time to allow the ligand-receptor binding reaction to reach equilibrium. The solution is then briefly exposed to a solid support containing immobilized PDGFR or VEGFR, which captures unbound ligand. The amount of ligand bound to the solid support is then detected using a fluorescently-labeled antibody. […] For each binding interaction measured, curves for two concentrations of the constant ligand are performed. By performing two experiments with fixed ligand concentrations above and below the Kd, and fitting both sets of data with a nonlinear regression analysis, a more accurate measurement for the affinity can be obtained.
(§6) Kinetic Exclusion Assay (KinExA). All experiments were performed on a KinExA 3200 instrument with siliconized flow cell (Sapidyne Instruments Inc). […] 30 μg of receptor was incubated in 1 ml of 50 mM sodium bicarbonate, 0.5 M sodium citrate buffer, pH 8.3, for 2 hr at room temperature with rocking. Beads were allowed to settle by gravity and liquid removed. Beads were blocked by incubating in 1 ml of 10 mg/ml BSA in 1 M Tris buffer, pH 8.0, for 1 hr at room temperature with rocking, and stored in blocking buffer at 4° C. for up to one week until use. Running buffer contained PBS with 10 mM imidazole and 0.02% sodium azide. Samples were prepared in running buffer with 1 mg/ml BSA. Binding reactions were prepared with a fixed concentration of PDGF/VEGF ligands and dilution series of PDGFR or VEGFR. Captured PDGF/VEGF ligands were detected using a Dylight 649-conjugated anti-FLAG antibody (Rockland) at 1:1000 dilution in sample buffer. Kinetic experiments were performed with the “Kinetics Injection” method defined in the KinExA software. Data were analyzed with KinExA Pro Software.

[5] = target: B4; experiment: as above
Procedure: as §5, §6

[6] = target: T2, mouse VEGFR on SVR murine angiosarcoma …; experiment: flow cytometry on SVR cells
Procedure: as §3, §4

[7] = target: T3, human VEGFR on human umbilical vein endothelial cells (HUVECs) (human, UniProt P35968 20-1356); experiment: flow cytometry on HUVECs, soluble ligand titrated 3 h at 4 C, anti-FLAG-PE
T3 construct: The phosphorylation blots on these cells detect VEGFR2
T3 sequence (P35968 20-1356 limits assumed): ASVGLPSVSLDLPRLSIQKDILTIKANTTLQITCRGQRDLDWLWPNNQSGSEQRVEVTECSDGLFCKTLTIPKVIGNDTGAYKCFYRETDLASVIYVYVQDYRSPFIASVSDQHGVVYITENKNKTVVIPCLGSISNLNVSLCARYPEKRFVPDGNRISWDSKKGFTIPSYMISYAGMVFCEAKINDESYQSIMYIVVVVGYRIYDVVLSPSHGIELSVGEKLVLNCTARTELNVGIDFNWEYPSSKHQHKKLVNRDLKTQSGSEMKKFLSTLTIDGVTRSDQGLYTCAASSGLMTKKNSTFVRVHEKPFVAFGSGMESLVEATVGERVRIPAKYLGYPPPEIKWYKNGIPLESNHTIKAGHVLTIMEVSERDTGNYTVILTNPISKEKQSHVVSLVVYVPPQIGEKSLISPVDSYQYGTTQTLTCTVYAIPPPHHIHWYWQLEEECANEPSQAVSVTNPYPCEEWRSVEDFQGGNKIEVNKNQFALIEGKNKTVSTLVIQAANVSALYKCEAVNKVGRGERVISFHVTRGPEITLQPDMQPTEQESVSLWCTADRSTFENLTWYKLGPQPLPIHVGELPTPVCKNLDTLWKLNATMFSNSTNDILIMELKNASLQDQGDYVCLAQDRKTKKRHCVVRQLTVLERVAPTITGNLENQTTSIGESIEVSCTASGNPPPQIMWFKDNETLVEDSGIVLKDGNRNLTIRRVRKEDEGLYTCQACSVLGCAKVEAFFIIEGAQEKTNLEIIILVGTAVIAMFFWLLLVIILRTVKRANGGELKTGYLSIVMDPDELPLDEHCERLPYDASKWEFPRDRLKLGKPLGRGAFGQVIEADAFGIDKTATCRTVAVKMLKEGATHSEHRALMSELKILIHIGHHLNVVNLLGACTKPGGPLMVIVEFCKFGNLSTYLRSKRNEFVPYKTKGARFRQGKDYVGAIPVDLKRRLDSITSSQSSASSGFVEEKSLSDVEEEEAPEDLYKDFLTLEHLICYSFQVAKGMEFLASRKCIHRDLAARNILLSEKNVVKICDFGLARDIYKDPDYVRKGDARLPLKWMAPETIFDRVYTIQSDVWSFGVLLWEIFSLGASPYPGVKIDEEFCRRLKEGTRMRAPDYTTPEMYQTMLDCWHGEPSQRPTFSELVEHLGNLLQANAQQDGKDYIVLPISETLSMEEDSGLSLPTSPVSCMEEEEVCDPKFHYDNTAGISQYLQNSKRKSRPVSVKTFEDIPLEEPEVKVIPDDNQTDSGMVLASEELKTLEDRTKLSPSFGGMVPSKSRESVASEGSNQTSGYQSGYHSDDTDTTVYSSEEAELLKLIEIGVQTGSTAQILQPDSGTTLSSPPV
Procedure: as §3, §4

[8] = target: T3, human VEGFR on human umbilical vein …; experiment: flow cytometry titration of the soluble FLAG-tagged protein on HUVECs, anti-FLAG detection
Procedure: as §3, §4

[9] = target: T3, human VEGFR on human umbilical vein …; experiment: flow cytometry on HUVECs
Procedure: as §3, §4

[10] = target: T2, mouse VEGFR on SVR murine angiosarcoma …; experiment: flow cytometry titration of the soluble FLAG-tagged protein on SVR cells, anti-FLAG detection
Procedure: as §3, §4

[11] = target: PDGFRβ on DiscoveRx PathHunter U2OS PDGFRβ reporter cells (UniProt P09619 33-1106, limits assumed); experiment: cell-based or functional assay
[12] = target: T3, human VEGFR on human umbilical vein …; experiment: cell-based or functional assay
[13] = target: T1, VEGFR2-His (residues 1-764 of VEGFR2, …); experiment: KinExA, calculated from Kd and kon
Procedure: (§7) By performing two experiments with fixed ligand concentrations above and below the Kd, and fitting both sets of data with a nonlinear regression analysis, a more accurate measurement for the affinity can be obtained.
as §1, §2

[14] = target: B4; experiment: KinExA, calculated from Kd and kon
Procedure: as §7, §1, §2

[15] = target: T1, VEGFR2-His (residues 1-764 of VEGFR2, …); experiment: KinExA
Procedure: as §5
(§8) Kinetic Exclusion Assay (KinExA). All experiments were performed on a KinExA 3200 instrument with siliconized flow cell (Sapidyne Instruments Inc). […] 30 μg of receptor was incubated in 1 ml of 50 mM sodium bicarbonate, 0.5 M sodium citrate buffer, pH 8.3, for 2 hr at room temperature with rocking. Beads were allowed to settle by gravity and liquid removed. […] Captured PDGF/VEGF ligands were detected using a Dylight 649-conjugated anti-FLAG antibody (Rockland) at 1:1000 dilution in sample buffer. […] Data were analyzed with KinExA Pro Software.

[16] = target: B4; experiment: KinExA
Procedure: as §5, §8

[17] = target: B4; experiment: KinExA; calculated, could not be accurately determined because of the fast equilibrium time
[18] = target: B4; experiment: KinExA Kinetics Injection; could not be accurately determined because of the fast equilibrium time
[19] = target: T3, human VEGFR on human umbilical vein …; experiment: flow cytometry on HUVECs, soluble ligand titrated 3 h at 4 C, anti-FLAG-PE; remark: listed apart in the source
[20] = target: T4, scPDGF, yeast-displayed (human); experiment: yeast surface display of scPDGF, flow cytometry titration of PDGFRβ-His, anti-His detection
T4 chain: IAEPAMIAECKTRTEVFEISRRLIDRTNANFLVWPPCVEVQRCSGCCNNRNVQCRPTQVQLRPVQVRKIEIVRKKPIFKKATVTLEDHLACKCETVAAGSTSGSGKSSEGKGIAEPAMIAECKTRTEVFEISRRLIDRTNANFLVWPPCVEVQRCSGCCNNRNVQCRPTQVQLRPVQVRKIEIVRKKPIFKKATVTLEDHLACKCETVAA
Procedure: Cells were incubated in large enough volumes to avoid ligand depletion and appropriate time to reach equilibrium. During the last hour of incubation, yeast were incubated with 1:250 dilution of chicken anti-c-Myc (Invitrogen) in PBSA. […] Yeast were washed, pelleted, and resuspended in PBSA immediately before analysis by flow cytometry using BD FACSCalibur or BD Accuri C6. Flow cytometry data were analyzed using FlowJo (v7.6.1 and v10, Treestar) or BD Accuri C6 software. Statistical analysis was performed using GraphPad Prism 6.
Bound protein was detected using fluorescently-labeled anti-His and anti-mouse-Fc antibodies.

B1: PVGS, soluble, FLAG and hexahistidine tags (designed binder)
chain: DYKDDDDKIAEPAMIAECHPIETLVDILQEYPDEIGYIFKPSCVPLMRCGGCCNNRNVQCRPTEESNITMQIMRIKPHRGQHIGEMSFLQHNKCRCETVAAGGGGSGGGGSGGGGSGGGGSEVVKFMDVYQRSYCKTRTEVFEISRRLIDATNANFLVWPPCVEVQRCSGCCNHEGLECVPTQVQLRPVQVRKIEFVRKKPIFKKATVTLEDHLACECRPKKDHHHHHH
notes: Secreted from S. cerevisiae YVH10 at 20 C and treated with Endo Hf
With B1 the kon [1] was 680000 M⁻¹ s⁻¹, the kon [2] was 2e+07 M⁻¹ s⁻¹ and the Kd [3] was 0.45 nM. For the same binder, the Kd [4] was 0.014 nM, the Kd [5] was 0.0067 nM and the “fold improvement in affinity compared to PV6” value (shortened to “fold improvement in affinity”) [6] was 78 fold. For the same binder, the Kd [7] was 0.77 nM, the “EC50 (read off the curve)” value [8] was roughly 0.8 nM and the “fold improvement in affinity” value [9] was 14 fold. For the same binder, the “EC50 (read off the curve)” value [10] was roughly 0.5 nM, the “IC50 of inhibition of stimulation by 0.5 nM PDGF-BB, PathHunter PDGFRβ reporter cells” value [11] was 1.1 nM and the “IC50 of inhibition of HUVEC proliferation induced by 0.5 nM VEGF165, alamarBlue” value [12] was 1.2 nM. For the same binder, the koff [13] was 9.6e-06 s⁻¹, the koff [14] was 0.00013 s⁻¹ and the “fold improvement in affinity” value [15] was 2700 fold. For the same binder, the “fold improvement in binding affinity compared to PV6” value [16] was 130 fold.

B2: scPDGF, single-chain version of wild-type PDGF-BB, soluble, FLAG and hexahistidine tags (ligand)
chain: IAEPAMIAECKTRTEVFEISRRLIDRTNANFLVWPPCVEVQRCSGCCNNRNVQCRPTQVQLRPVQVRKIEIVRKKPIFKKATVTLEDHLACKCETVAAGSTSGSGKSSEGKGIAEPAMIAECKTRTEVFEISRRLIDRTNANFLVWPPCVEVQRCSGCCNNRNVQCRPTQVQLRPVQVRKIEIVRKKPIFKKATVTLEDHLACKCETVAA
B2 was tested, and the koff [17] was greater than 0.31 s⁻¹, the Kd [5] was 18 nM and the kon [18] was greater than 1.7e+07 M⁻¹ s⁻¹. For the same binder, the “EC50 of receptor activation, DiscoveRx PathHunter PDGFR reporter cells, chemiluminescence” value [11] was 0.14 nM.

B3: scVEGFwt, single-chain version of VEGF-A, soluble, FLAG and hexahistidine tags (ligand)
chain: DYKDDDDKEVVKFMDVYQRSYCHPIETLVDIFQEYPDEIEYIFKPSCVPLMRCGGCCNDEGLECVPTEESNITMQIMRIKPHQGQHIGEMSFLQHNKCECRPKKDGSTSGSGKSSEGKGEVVKFMDVYQRSYCHPIETLVDIFQEYPDEIEYIFKPSCVPLMRCGGCCNDEGLECVPTEESNITMQIMRIKPHQGQHIGEMSFLQHNKCECRPKKDHHHHHH
notes: Expressed in Pichia pastoris GS115; also called single-chain VEGF-A
B3 was tested, and the Kd [3] was 10 nM, the Kd [19] was 1.5 nM and the Kd [7] was 18 nM. For the same binder, the “EC50 (read off the curve)” value [8] was roughly 10 nM.

B4 was tested, and the “EC50 (read off the curve)” value [20] was roughly 300 nM.
